Data: publication PMC8690919 (Theranostics, 2022)

B1: FD-11A human monoclonal antibody (IgG1) (antibody, V domains shown)
VH: EVQLVESGGGVVQPGRSLRLSCAASGFTFSSYGMHWVRQAPGKGLEWVAVIWYDGSNKYYADSVKGRFTISRDNSKNTLYLQMNSLRAEDTAVYYCAKGPDILTGYYNYYYYGMDVWGQGTMVTVSS
VL: QSVLTQPPSVSGAPGQRVTISCTGSSSNIGAGYDVHWYQQLPGTAPKLLIYGNSNRPSGVPDRFSGSKSGTSASLAITGLQAEDEADYYCQSYDSSLSGFYVVFGGGTKLTVL
B2: REGN10987 monoclonal antibody (antibody, V domains shown)
VH: QVQLVESGGGVVQPGRSLRLSCAASGFTFSNYAMYWVRQAPGKGLEWVAVISYDGSNKYYADSVKGRFTISRDNSKNTLYLQMNSLRTEDTAVYYCASGSDYGDYLLVYWGQGTLVTVSS
VL: QSALTQPASVSGSPGQSITISCTGTSSDVGGYNYVSWYQQHPGKAPKLMIYDVSKRPSGVSNRFSGSKSGNTASLTISGLQSEDEADYYCNSLTSISTWVFGGGTKLTVL
notes: also called REGN10977 (as printed once)
B3: EY-6A human monoclonal antibody (IgG1) (antibody, V domains shown)
VH: EVQLVESGGGVVQPGRSLRLSCAASAFTFSSYDMHWVRQAPGKGLEWVAVISYDGSNKYYADSVKGRFTISRDNSKNTLYLQMNSLRAEDTAVYYCAKDGGKLWVYYFDYWGQGTLVTVSS
VL: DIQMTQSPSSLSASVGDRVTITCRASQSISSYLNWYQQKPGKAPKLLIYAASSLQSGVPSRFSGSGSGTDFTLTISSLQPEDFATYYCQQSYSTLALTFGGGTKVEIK
B4: REGN10933 monoclonal antibody (antibody, V domains shown)
VH: QVQLVESGGGLVKPGGSLRLSCAASGFTFSDYYMSWIRQAPGKGLEWVSYITYSGSTIYYADSVKGRFTISRDNAKSSLYLQMNSLRAEDTAVYYCARDRGTTMVPFDYWGQGTLVTVSS
VL: DIQMTQSPSSLSASVGDRVTITCQASQDITNYLNWYQQKPGKAPKLLIYAASNLETGVPSRFSGSGSGTDFTFTISGLQPEDIATYYCQQYDNLPLTFGGGTKVEIK
notes: source: ExpiCHO cells, purified (MabSelect SuRe, desalted)
B5: FI-3A human monoclonal antibody (IgG1) (antibody, V domains shown)
VH: EVQLLESGGGLIQPGGSLRLSCAASGFTVSSNYMSWVRQAPGKGLEWVSVIYSGGSTYYADSVKGRFTISRDNSKNTLYLQMNSLRAEDTAVYYCARDHVRPGMNIWGQGTMVTVSS
VL: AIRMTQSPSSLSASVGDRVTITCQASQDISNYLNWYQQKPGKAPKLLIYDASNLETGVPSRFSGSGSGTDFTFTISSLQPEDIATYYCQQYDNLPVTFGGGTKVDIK
B6: FD-5D human monoclonal antibody (IgG1) (antibody, V domains shown)
VH: EVQLVESGGGLVQPGGSLRLSCAASGFTFSSYSMNWVRQAPGKGLEWVSYISSSSSTIYYADSVKGRFTISRDNAKNSLYLQMNSLRAEDTAVYYCASPGGITAAGTSVLFGYYGMDVWGQGTTVTVSS
VL: not shown
notes: as for B4

target: RBD-VLP (SARS-CoV-2, UniProt P0DTC2); test: ELISA; details: both partners purified

Row | Binder | binding result
1 | B1 | binds
2 | B2 | binds
3 | B3 | binds
4 | B4 | binds
5 | B5 | binds
6 | B6 | binds

target: T1, SARS-CoV-2 spike protein (Wuhan strain), full length, expressed on MDCK cells (SARS-CoV-2, UniProt P0DTC2); test: flow cytometry on cells; details: one partner purified
T1 construct: source: MDCK-SIAT1 cells stably transfected (lentiviral vector), on cells

Row | Binder | binding result
7 | B1 | binds
8 | B3 | binds
9 | B5 | binds
